The values that follow come from US20050037413A1.

Experiment [1] addresses glutathione (GSH) immobilized on dendron-modified controlled pore glass, sample E1 (Fmoc-(3)acid dendron). The experiment can be described thus: GST captured on beads, sample weight adjusted to the same number of GSH, SDS-PAGE densitometry.
The target in experiment [2] is glutathione (GSH) immobilized on dendron-modified controlled pore glass, sample E3 (Fmoc-(9)acid dendron). The experiment is described as above.
The target in experiment [3] is glutathione (GSH) immobilized on dendron-modified controlled pore glass, sample E1 (Fmoc-(3)acid dendron). Nature of the experiment: pull-down from lysate with E1 beads, SDS-PAGE densitometry, relative to GST on E1.
The target in experiment [4] is glutathione (GSH) immobilized on dendron-modified controlled pore glass, sample E3 (Fmoc-(9)acid dendron). The experiment can be described thus: pull-down from lysate with E3 beads, SDS-PAGE densitometry, relative to GST on E3.
The target of a further experiment is glutathione Sepharose-4B. The experiment can be described thus: pull-down from lysate with glutathione Sepharose-4B, SDS-PAGE densitometry, relative to GST on Sepharose-4B.

With “glutathione S-transferase (GST) (28 kDa) (from UniProt P08515 1-218) (enzyme)”, the Percentage of ligand utilization (%) was determined as 29% in experiment [1] and 31% in experiment [2].
In the case of “GST-PX^p47 (41 kDa), GST fused to the PX domain of p47^phox (from UniProt P08515 1-218)”, the relative binding capacity (GST on the same matrix set at 100%) is 92% in experiment [3] and 85% in experiment [4]. Besides, the binding efficiency (relative, GST on the same matrix set at 100%) with glutathione Sepharose-4B amounted to 104%.
“GST-Munc-18 fragment (98 kDa) (from UniProt P08515 1-218)”: the relative binding capacity (GST on the same matrix set at 100%) turned out to be 22% in experiment [3] and 23% in experiment [4]. Further, in the experiment with glutathione Sepharose-4B, the binding efficiency (relative, GST on the same matrix set at 100%) was 17%.
